Tests used:
[1] = target: T1, human SEZ6 on cells (293-SEZ6) (human, UniProt Q53EL9 20-994); assay: flow cytometry on live 293-SEZ6 cells, Alexa Fluor 488 anti-human IgG secondary [continued), panel H]
T1 construct: whole, on cells; also called Seizure Protein 6 Homolog
T1 sequence (looked up): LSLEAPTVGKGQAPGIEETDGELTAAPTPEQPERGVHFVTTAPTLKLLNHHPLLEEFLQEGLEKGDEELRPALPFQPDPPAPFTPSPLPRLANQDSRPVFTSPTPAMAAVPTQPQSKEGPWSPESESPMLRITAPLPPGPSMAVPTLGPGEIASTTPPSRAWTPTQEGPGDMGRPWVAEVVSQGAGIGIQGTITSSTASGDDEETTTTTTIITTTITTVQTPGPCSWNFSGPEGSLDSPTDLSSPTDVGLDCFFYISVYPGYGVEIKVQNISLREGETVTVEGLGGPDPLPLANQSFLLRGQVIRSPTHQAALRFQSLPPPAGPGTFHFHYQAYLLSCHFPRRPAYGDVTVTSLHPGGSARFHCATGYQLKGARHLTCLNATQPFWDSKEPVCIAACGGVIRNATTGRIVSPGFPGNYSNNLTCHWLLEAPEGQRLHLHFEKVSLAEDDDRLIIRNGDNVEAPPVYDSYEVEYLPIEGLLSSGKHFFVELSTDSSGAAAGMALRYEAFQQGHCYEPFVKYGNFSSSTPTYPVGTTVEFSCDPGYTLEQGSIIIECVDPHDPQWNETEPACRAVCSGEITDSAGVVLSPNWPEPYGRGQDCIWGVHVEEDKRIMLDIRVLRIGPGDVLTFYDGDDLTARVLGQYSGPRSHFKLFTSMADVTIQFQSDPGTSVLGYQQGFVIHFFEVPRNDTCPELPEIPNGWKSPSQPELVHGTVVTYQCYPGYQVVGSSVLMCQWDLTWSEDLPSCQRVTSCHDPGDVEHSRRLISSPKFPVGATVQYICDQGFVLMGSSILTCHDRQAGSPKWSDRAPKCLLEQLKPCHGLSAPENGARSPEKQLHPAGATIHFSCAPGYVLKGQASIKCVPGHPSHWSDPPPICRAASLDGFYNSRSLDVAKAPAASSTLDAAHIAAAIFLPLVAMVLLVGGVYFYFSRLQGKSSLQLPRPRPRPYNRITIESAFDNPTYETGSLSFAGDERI

[2] = target: T2, human SEZ6L on cells (293-SEZ6L) (human, UniProt Q9BYH1 29-1024); assay: flow cytometry on live 293-SEZ6L cells, Alexa Fluor 488 anti-human IgG secondary [continued), panel H]
T2 construct: whole, on cells; also called Seizure 6-like Protein
T2 sequence (looked up): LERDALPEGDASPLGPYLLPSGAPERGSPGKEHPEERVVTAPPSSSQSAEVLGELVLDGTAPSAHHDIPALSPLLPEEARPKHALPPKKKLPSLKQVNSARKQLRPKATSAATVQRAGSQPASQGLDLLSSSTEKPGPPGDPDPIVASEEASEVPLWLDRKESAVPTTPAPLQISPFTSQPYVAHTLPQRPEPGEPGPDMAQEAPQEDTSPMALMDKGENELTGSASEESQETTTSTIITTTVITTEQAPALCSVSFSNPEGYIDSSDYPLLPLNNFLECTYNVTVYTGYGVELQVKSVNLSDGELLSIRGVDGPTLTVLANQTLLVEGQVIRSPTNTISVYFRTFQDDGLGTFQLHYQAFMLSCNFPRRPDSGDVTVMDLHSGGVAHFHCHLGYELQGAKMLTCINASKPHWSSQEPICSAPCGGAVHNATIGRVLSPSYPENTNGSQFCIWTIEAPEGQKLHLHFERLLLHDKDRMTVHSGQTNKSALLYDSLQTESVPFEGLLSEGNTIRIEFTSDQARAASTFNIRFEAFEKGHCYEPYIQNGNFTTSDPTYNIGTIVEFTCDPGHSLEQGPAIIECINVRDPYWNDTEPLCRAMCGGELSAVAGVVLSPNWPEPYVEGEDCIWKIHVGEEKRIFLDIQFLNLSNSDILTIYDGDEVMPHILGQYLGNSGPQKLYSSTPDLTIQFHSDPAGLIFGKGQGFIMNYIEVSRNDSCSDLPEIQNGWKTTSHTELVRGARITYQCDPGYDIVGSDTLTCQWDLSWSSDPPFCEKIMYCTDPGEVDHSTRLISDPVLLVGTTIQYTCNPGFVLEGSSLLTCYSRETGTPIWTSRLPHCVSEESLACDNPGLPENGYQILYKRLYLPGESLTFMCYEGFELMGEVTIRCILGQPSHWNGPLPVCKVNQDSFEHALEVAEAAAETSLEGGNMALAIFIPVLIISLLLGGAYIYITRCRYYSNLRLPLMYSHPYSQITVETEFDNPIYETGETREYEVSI

[3] = target: T3, human SEZ6L2 on cells (293-SEZ6L2, HEK 293 cells transfected with human SEZ6L2, and SEZ6L2-expressing tumor … (human, UniProt Q6UXD5 28-910)); assay: flow cytometry on live 293-SEZ6L2 cells, primary antibody 1 ug/ml, Alexa Fluor 488 anti-human IgG secondary [continued), panel H]
T3 construct: Tumor cell lines express the endogenous protein; also called hSEZ6L2

[4] = target: T3, human SEZ6L2 on cells (293-SEZ6L2, HEK …); assay: immunofluorescence and flow cytometry on HEK 293 cells transfected with human SEZ6L2 against untransfected cells
[5] = target: T1, human SEZ6 on cells (293-SEZ6); assay: flow cytometry on live 293-SEZ6 cells, Alexa Fluor 488 anti-human IgG secondary [continued), panel F]
[6] = target: T2, human SEZ6L on cells (293-SEZ6L); assay: flow cytometry on live 293-SEZ6L cells, Alexa Fluor 488 anti-human IgG secondary [continued), panel F]
[7] = target: T3, human SEZ6L2 on cells (293-SEZ6L2, HEK …); assay: flow cytometry on live 293-SEZ6L2 cells, primary antibody 1 ug/ml, Alexa Fluor 488 anti-human IgG secondary [continued), panel F]
[8] = target: T4, recombinant cynomolgus monkey SEZ6L2 (cynomolgus monkey, UniProt G7Q0V6 28-844); assay: BLI (ForteBio Octet Red96), antibody on Protein A biosensors, recombinant target protein in solution
T4 construct: The construct is not described; also called cynomolgus monkey SEZL2

[9] = target: T5, recombinant human SEZ6L2 (extracellular portion of human SEZ6L2 fused to six C-terminal histidine-tag repeats) (human, UniProt Q6UXD5 28-844); assay: as above
T5 construct: also called SEZ6L2-his; recombinant SEZ6L2

[10] = target: T1, human SEZ6 on cells (293-SEZ6); assay: flow cytometry on live 293-SEZ6 cells, Alexa Fluor 488 anti-human IgG secondary [panel A]
[11] = target: T2, human SEZ6L on cells (293-SEZ6L); assay: flow cytometry on live 293-SEZ6L cells, Alexa Fluor 488 anti-human IgG secondary [panel A]
[12] = target: T1, human SEZ6 on cells (293-SEZ6); assay: flow cytometry on live 293-SEZ6 cells, Alexa Fluor 488 anti-human IgG secondary [continued), panel I]
[13] = target: T2, human SEZ6L on cells (293-SEZ6L); assay: flow cytometry on live 293-SEZ6L cells, Alexa Fluor 488 anti-human IgG secondary [continued), panel I]
[14] = target: T3, human SEZ6L2 on cells (293-SEZ6L2, HEK …); assay: flow cytometry on live 293-SEZ6L2 cells, primary antibody 1 ug/ml, Alexa Fluor 488 anti-human IgG secondary [continued), panel G]
[15] = target: T1, human SEZ6 on cells (293-SEZ6); assay: flow cytometry on live 293-SEZ6 cells, Alexa Fluor 488 anti-human IgG secondary [continued), panel G]
[16] = target: T2, human SEZ6L on cells (293-SEZ6L); assay: flow cytometry on live 293-SEZ6L cells, Alexa Fluor 488 anti-human IgG secondary [continued), panel G]

T3 sequence (Q6UXD5 28-910): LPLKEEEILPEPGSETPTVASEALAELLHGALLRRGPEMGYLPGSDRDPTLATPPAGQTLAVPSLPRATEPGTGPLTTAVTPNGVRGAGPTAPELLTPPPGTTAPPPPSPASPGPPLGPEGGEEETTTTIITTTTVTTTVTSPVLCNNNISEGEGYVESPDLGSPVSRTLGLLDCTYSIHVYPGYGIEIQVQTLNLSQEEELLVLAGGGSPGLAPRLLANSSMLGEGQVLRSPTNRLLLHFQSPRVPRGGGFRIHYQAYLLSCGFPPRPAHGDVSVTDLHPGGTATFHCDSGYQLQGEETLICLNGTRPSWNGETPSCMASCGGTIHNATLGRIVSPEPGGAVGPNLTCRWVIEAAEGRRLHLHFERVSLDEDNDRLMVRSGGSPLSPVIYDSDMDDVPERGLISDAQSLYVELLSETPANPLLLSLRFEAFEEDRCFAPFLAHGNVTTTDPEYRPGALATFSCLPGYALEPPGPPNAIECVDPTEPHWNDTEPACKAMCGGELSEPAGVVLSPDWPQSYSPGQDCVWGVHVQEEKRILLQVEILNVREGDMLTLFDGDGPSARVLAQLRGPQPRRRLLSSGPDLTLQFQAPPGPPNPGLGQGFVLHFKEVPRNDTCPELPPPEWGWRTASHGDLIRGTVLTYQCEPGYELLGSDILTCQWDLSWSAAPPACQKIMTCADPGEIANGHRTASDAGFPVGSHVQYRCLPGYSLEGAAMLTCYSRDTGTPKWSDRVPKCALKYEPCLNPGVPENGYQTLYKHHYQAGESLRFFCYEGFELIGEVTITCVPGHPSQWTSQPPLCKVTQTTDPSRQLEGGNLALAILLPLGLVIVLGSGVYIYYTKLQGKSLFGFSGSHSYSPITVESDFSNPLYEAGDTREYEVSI
T5 sequence (Q6UXD5 other isoform, or with tags, fused parts or gaps): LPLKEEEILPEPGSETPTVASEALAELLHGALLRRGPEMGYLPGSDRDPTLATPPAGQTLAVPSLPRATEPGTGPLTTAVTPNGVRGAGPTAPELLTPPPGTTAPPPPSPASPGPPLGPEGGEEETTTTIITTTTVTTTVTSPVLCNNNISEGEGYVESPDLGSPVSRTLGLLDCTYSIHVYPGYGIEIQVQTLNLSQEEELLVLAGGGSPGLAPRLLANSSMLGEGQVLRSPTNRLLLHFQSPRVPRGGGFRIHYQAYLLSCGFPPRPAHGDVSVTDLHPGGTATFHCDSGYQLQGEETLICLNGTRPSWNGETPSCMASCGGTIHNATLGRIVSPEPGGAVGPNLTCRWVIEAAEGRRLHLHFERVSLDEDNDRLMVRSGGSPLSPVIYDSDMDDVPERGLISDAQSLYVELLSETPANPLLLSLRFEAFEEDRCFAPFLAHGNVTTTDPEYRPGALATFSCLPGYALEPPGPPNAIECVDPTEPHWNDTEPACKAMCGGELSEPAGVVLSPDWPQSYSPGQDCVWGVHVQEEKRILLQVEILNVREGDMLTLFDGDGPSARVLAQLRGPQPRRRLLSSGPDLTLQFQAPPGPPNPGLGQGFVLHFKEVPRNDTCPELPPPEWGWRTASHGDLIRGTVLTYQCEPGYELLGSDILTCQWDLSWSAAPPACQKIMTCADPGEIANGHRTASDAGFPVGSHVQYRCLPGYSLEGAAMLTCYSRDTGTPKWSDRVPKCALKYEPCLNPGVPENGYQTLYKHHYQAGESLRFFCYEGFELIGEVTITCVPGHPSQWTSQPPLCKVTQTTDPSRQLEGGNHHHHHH

B1: human anti-SEZ6L2 antibody 3B6 (antibody, V domains shown)
VH: QVQLVQSGAEVKKPGASVKVSCKASGYTFTAYYMHWVRQAPGQGLEWMGWINPNSGGTNYAQKFQGRVTMTRDTSIDTAYLDLSRLRSDDTAVYYCAKDSGYDWYFDIWGRGTLVTVSS
VL: EIVLTQSPATLSLSPGERATLSCRASQNISSYLAWYQQKPGQAPRLLIYDASNRATGIPARFSGSGSGTDFTLTISSLEPEDFAVFYCQQHSNWPPLTFGGGTKVEIKR
notes: Fully human antibody from H2L2 mice
B1: no binding (tested: 1 ug/ml) [1]; no binding (tested: 1 ug/ml) [2]; binds [3].

B2: murine anti-SEZ6L2 antibody mu3E2 (antibody, V domains shown)
VH: EVLLVESGGRLVQPKGSLKLSCAASGFSFNTITMNWVRQAPGKGLEWVARIRSKSNNYATYYADAVKDRFTISRDDSQSMLYLQMNNLKTEDTAMYFCVRGIFSGYVYAMDYWGQGTTLTVSS
VL: DVVMTQSPLSLPVSVGDQASISCRSSQSIVHSNGNTYLEWYLQKPGQSPKVLIYKVSNRFSGVPDRFSGSGSGTDFTLKISRVEAEDLGVYYCFQGSHVPYTFGGGTKLEIK
notes: Mouse hybridoma antibody
B2: binds [4].

B3: murine anti-SEZ6L2 antibody mu2E4 (antibody, V domains shown)
VH: EVKLVESGGVLVKPGGSLKLSCAASGFTFSKYAMSWVRQTPEKRLEWVATISSGGSYTYYPDSVKGRFTISRDNARNTLYLQMSSLRSEDTAIYYCTREGGYDEGYAMDYWGQGTTLTVS
VL: DVVMTQTPLSLPVSLGDQASISCRSSQSLVHSYGNTYLHWYLQKPGQSPKLLIYKVSNRFSGVPDRFSGSGSGTDFTLKISRVEAEDLGVYFCSQSTHFRTFGGGTKLEIK
notes: Mouse hybridoma antibody
B3: binds [4].

B4: human anti-SEZ6L2 antibody 3B1 (antibody, V domains shown)
VH: QVQLVESGGGVVQPGRSLRLTCVVSGFAFSSYGMHWVRQAPGKGLEWVAVIWYDGSNKYYADSVKGRFTISRDNSKNTLYLQMNSLRAEDTAVYYCASLDYYGSGSRFDPWGQGTLVTVSS
VL: not shown
notes: as for B1
B4: no binding (tested: 1 ug/ml) [5]; no binding (tested: 1 ug/ml) [6]; binds [7].

B5: human anti-SEZ6L2 antibody 1A1 (antibody, V domains shown)
VH: QVQLVQSGAEVKKPGASVKVSCKASGYTFTGYYMFWVRQAPGQGLEWLGWINPNSGGTDYAQKFQGRVTMTRDTSISTAYMELSRLRSDDTAVYYCARDSGYDWFFDYWGQGTLVTVSS
VL: not shown
notes: Fully human antibody from H2L2 mice, expressed recombinantly; it was captured on Protein A and detected with anti-human IgG
B5 was tested, and the Kd [8] was 1 nM, the Kd [9] was 1 nM and the binding result [10] was “no binding (tested: 1 ug/ml)”. B5: no binding (tested: 1 ug/ml) [11].

B6: humanized anti-SEZ6L2 antibody 2E4 (antibody, human IgG1, V domains shown)
VH: EVKLVESGGVLVKPGGSLRLSCAASGFTFSKYAMSWVRQAPGKGLEWVSTISSGGSYTYYPDSVKGRFTISRDNARNSLYLQMNSLRAEDTAIYYCTREGGYDEGYAMDYWGQGTTVTVSS
VL: DIVMTQSPDSLAVSLGERATINCRSSQSLVHSYGNTYLHWYQQKPGQPPKLLIYKVSNRFSGVPDRFSGSGSGTDFTLTISSLQAEDVAVYFCSQSTHFRTFGGGTKVEIKR
notes: also called 2E4:4D2
In the case of B6, the binding result [12] is reported as “no binding (tested: 1 ug/ml)”, the Kd [8] is reported as 12 nM and the Kd [9] is reported as 7 nM. B6: no binding (tested: 1 ug/ml) [13].

B7: human anti-SEZ6L2 antibody 3B3 (antibody, V domains shown)
VH: EVQLVESGGGLVQPGGSLRLSCAASGFTFSSYWMSWVRQAPGKGLEWVANIKQDGSEKYYVDSVKGRFTISRDNAKNSLYLQMNSLRAEDTAVYYCARGGGSYAFDYWGQGTLVTVSS
VL: not shown
notes: as for B1
B7: binds [14]; no binding (tested: 1 ug/ml) [15]; no binding (tested: 1 ug/ml) [16].

Reference: patent US20210130454A1 (BLUEFIN BIOMEDICINE, published 2021)
